Laboratory results published in US20070185028A1, “Compositions and methods for treatment of protein misfolding and protein aggregation diseases” (priority 2004, published 2007).

Key:
γD crystallin = target: T1, γD crystallin (Homo sapiens, UniProt P07320); assay: γD crystallin Thioflavin T fluorescence (fibrillization); format: biochemical; settings: 1:1 γD crystallin:peptide; for Δfluorescence (γD crystallin): Thioflavin T, 50° C., 72 hours
T1 sequence (P07320 2-174): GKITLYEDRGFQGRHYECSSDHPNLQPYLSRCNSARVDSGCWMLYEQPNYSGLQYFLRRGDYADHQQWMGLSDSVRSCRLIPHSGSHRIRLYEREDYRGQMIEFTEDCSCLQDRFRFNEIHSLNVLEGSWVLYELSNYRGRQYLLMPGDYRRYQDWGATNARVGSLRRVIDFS
Procedure: γD crystallin Thioflaviin T fluorescence. γD crystallin fibrils were formed in a similar way to that of γ crystalline. Meehan et al., J Biol Chem 279: 3413-3419, 2004. Peptides were dissolved to 9.1 mM in TFE and diluted to 0.91 mM stock solutions in 10% TFE, pH 2.0. 3.5 mg of Thioflavin T was dissolved in 100 μl of 50 mM Glycine pH 8.5. A stock solution of 1 mg/ml (0.22 mM) Aβ was prepared. 20 μl Aβ, 5 μl chaperone, 2 μl Thioflavin T was mixed with 73 μl 10% TFE, pH 2.0. Fluorescence was read using a Beckman Coultier DTX 880 multimode detector. Samples were heated at 50° C. for 72 hours and fluorescence was read again.
The fibrillization of γD crystallin was measured as fluorescence of the fluorescent dye Thioflavin T from solutions containing 1:1 monomeric molar ratio of γD crystallin:peptide. In the absence of fibrils Thioflavin T had little or no fluorescence. The fluorescence of the Thioflavin T bound to γD crystallin fibrils in the absence of any other molecule after 72 hrs was set to 100%. […] Fibril formation=ΔfluorescenceγD crystallin (with chaperone)*100/ΔfluorescenceγD crystallin (without chaperone).

human γD crystallin = target: T2, human γD crystallin (Homo sapiens, UniProt P07320); assay: αB crystallin protein pin array with γD crystallin; format: binding; settings: unheated γD crystallin; similar maxima pre-heated 45° C.
T2 construct: made in house
T2 sequence (P07320 1-174): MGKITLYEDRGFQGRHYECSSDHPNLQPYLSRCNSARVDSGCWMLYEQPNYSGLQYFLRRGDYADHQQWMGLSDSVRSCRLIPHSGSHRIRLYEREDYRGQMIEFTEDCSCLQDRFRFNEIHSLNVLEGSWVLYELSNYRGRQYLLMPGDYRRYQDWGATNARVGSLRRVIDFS
Description: Synthesis of Pins, binding and detection of peptides binding to ligand proteins. The αB crystallin protein pin array was used to measure the interaction between peptides and chaperone target proteins including bovine βH crystallin, human γD crystallin, equine alcohol dehydrogenase (ADH) and porcine citrate synthase (CS) as described (FIG. 12). Ghosh and Clark, Protein Sci 14: 684-95, 2005.
Refer to the methods section for detailed protocols. The absorbance corresponding to the blue coloration in each well was measured at λ=450 nm and plotted against the amino acid sequence of the corresponding peptide in that well (FIGS. 13 and 14). Wells containing peptides that have strong interactions with target proteins are dark blue and wells containing peptides that have weak or no interaction with target proteins are light blue or clear.
The purity of the target proteins used in the pin array assays, bovine βH crystallin, human γD crystallin, equine alcohol dehydrogenase (ADH) and porcine citrate synthase (CS) were determined to be >90% by SDS-PAGE. In addition, primary antibodies for each target protein were specific to that target protein and consequently contaminating proteins that may bind to the peptides will not be detected. Eighty-four sequential and overlapping peptide fragments corresponding to residues 1-175 of human αB crystallin were synthesized employing a simultaneous peptide synthesis strategy developed by Geysen, called Multipin Peptide Synthesis (Mimotopes, San Diego, Calif.). Geysen, Southeast Asian J Trop Med Public Health 21: 523-33, 1990; Chin et al., J Org Chem 62: 538-539, 1997. Peptides were immobilized on derivatized polyethylene pins arranged in a microtiter ELISA plate format. Each peptide was eight amino acids in length and consecutive peptides were offset by two amino acids. All peptides were bound covalently to the surface of the plastic pins. The first peptide was 1MDIAIHHP8 and the last peptide was 168PAVTAAPK175 for human αB crystallin.
Ghosh and Clark, Protein Sci 14: 684-95, 2005. […] The intensity of the blue color in the wells was measured at 450 nm using an ELISA plate-reader (BioTek, Winooski, Vt.). The intensity of the blue color (plotted on the X-axis) was a measure of the interaction between αB crystallin peptides (plotted on the Y-axis) and target proteins. To measure the effect of temperature on the interactions between interactive peptides and the target proteins, the target proteins were heated in a water-bath at 45° C. for fifteen minutes prior to use. Pin arrays are unable to differentiate between monomers, dimers or oligomers of target proteins that exist in solution. Instead, pin arrays are very sensitive detectors of interactions between individual peptides and the entire population (monomers, dimers or oligomers) of specific target proteins that may exist in solution under specific conditions. Each target protein was assayed two to five times. A single pin array was used for all experiments and no change in interactions was observed after more than thirty repetitions. The last three peptides of the protein pin array, 163REEKPAVT170, 165EKPAVTAA172, 167PAVTAAPK174, correspond to the epitope (163REEKPAVTAAPKK175) recognized by the primary antibody for human αB crystallin. A positive reaction is observed for these three peptides in the absence of human αB crystallin as the ligand due to direct binding of the anti-human αB crystallin antibody to these three peptides. The loss of efficiency for the pin array was measured using this assay. The loss of efficiency for the pin array was determined to be <5% by after more than 30 assays.
When βH crystallin was replaced with γD crystallin, a native protein constituent of lens cytoplasm from the same gene family as the β crystallins, as the ligand in the pin array, twelve interactive sequences were identified (FIG. 14: striped bars). […]

## DRFSVNLDVKHFS
γD crystallin
  Δfluorescence (γD crystallin): 661,038,176

## ERTIPITRE
γD crystallin
  Δfluorescence (γD crystallin): 611,017,728

## FSVNLDVK [Peptide 38]
Human γD crystallin
  absorbance at 450 nm, interaction with γD crystallin: maximum absorbances

## HGKHEERQDE
γD crystallin
  Δfluorescence (γD crystallin): 734,394,240

## LTITSSLS [Peptide 66]
Human γD crystallin
  absorbance at 450 nm, interaction with γD crystallin: maximum absorbances

## LTITSSLSSDGV
γD crystallin
  Δfluorescence (γD crystallin): 675,352,992

## STSLSPFYLRPPSFLRAP
γD crystallin; 72 hrs
  effect on the fibrillization of γD crystallin (ranking): strongest effect
γD crystallin
  Δfluorescence (γD crystallin): 606,290,176

## WIRRPFFP [Peptide 5]
Human γD crystallin
  absorbance at 450 nm, interaction with γD crystallin: maximum absorbances
